Assay results from patent publication US12332249B1, “Biomolecule detection method using diffusion ordered spectroscopy” (KUWAIT UNIVERSITY, priority 2024, dated 2025).

Legend:
[1] = Hydrodynamic radius from DOSY diffusion coefficient by Stokes-Einstein equation; type: physicochemical; details: obtained using Equation 2 (Stokes-Einstein)
Procedure: According to Stokes-Einstein equation mentioned below, the diffusion coefficient of solutes is directly linked to the hydrodynamic radius.
Where Rh is the hydrodynamic radius, kB is the Boltzmann constant, T is the temperature in K and η is the solution viscosity ([…] for D2O, and 30° C.) and D is the diffusion coefficient. The diffusion coefficient value is directly proportional to the temperature (T) and inversely proportional to the hydrodynamic radius. Thus, the hydrodynamic radius is related to the molecular weight, the higher the molecular weight, the larger the radius, the lower the diffusion and vice versa.

[2] = aqueous native avidin; cited from earlier work

For “avidin: protein with four identical subunits, each containing one binding site for biotin; from Sigma Aldrich”, the “hydrodynamic radius (Rh)” value [1] is given as 22.02 Å and the “hydrodynamic radius by dynamic light scattering (DLS)” value [2] is given as 26.4±0.3 Å.
